Publication PMC3103399 (Molecular Biology of the Cell, 2011)
Non-standard residues stand in square brackets, D forms with d. No end group written: not given here. pY = N[C@@H](Cc1ccc(OP(=O)(O)O)cc1)C(=O)O

Target: T1, GST-nephrin-CD (residues 1102–1252) (rat, UniProt Q9R044 1102-1252)
T1 sequence (looked up): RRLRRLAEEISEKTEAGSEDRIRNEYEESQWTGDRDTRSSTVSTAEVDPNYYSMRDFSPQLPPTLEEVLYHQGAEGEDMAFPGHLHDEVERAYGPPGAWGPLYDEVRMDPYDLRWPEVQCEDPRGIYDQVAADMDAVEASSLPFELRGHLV
Test: pull-down

CLASPA[pY]LSLSSE [phosphorylated TRPC6 Y284 peptide]
binding result: binds
